# Test results published in patent publication US10227575B2, “Multi-domain enzymes having cutinase activity, compositions comprising same and uses thereof” (OZYMES, priority 2015, dated 2019).
# B1: KrCUT: mature Kineococcus radiotolerans cutinase, amino acids 34-294 of SEQ ID NO: 1; SEQ ID NO: 6 (protein)
# chain: ATCSDVDVVFARGTGETPGLGVVGGPFVRSLTGELSDRTVTSHAVDYAASSSQASAGPGATAMSAHVREVAAACPSTRFVLGGYSQGATVTDIALGIRTGTTTGTPVPAELAGRVAAVVVFGNPLGLSGRTIATASSTYGPKSKDYCNSSDSVCGSAPKTGTGGHLSYASNGSTTDGARFAAGLVRAAGTPTTPTPTPTPTPVPTTCVRDSTRDHVAADRAVSLYGRAYARGSRDSLGATSSYNVVSLQQVEGGWRLVTAC
# modifications: Kineococcus radiotolerans; (1)..(261) KrCUT (lacking residues 1-33 of ssKrCUT)
# Columns and labels:
# [1] = Esterase assay, specific activity of KrCUT versus YebF-KrCUT; assay type: biochemical; details: pNP-palmitate as substrate
# Protocol: (§1) Esterase activity was determined by monitoring the formation of pNP at 410 nm from various pNP-esters using a Beckman UV spectrophotometer (model DU 640) (21). Substrates were dissolved in isopropanol and were added to 50 mM sodium phosphate buffer pH 8.0 to give 10% (v/v) total isopropanol concentration in a 1 mL reaction volume. pNP-butyrate was used at a final concentration of 1.2 mM. For pNP-caprylate, myristate and palmitate, the final concentration ranged from 0.1 to 0.5 mM. The reaction (1 mL) was started by adding an appropriate amount of enzyme. One enzyme unit (U) is defined as the amount of enzyme that produced 1 μmol of product (pNP) per min; specific activity is expressed as U/mg protein. A molar extinction coefficient of 15 mM^−1 cm^−1 for pNP is used for calculating enzyme activity.
# The presence of YebF appeared to greatly decrease the activity of the fusion proteins. […] The results are shown in FIG. 6, in which fractions C1-C10 correspond to the first peak (KrCUT) and fractions D9-D11 correspond to the second peak (YebF-KrCUT).
# [2] = pH optimum in Universal Buffer; assay type: biochemical; details: pH 5-11, p-nitrophenyl butyrate
# Protocol: as §1
# Universal Buffer solutions were prepared according to Britton and Robinson (Surinenaite et al., 2002), having the selected pH value from 5-11. Activity of KrCUT and KrCUT189 were measured at the indicated pH, using p-nitrophenyl butyrate as substrate as described in Example 1, section 1.6). Curves were obtained by plotting values of activity against pH.
# [3] = Hydrolysis of cutin, GC-MS of released monomers; assay type: biochemical, Apple (Golden Delicious)
# Protocol: Apple (Golden Delicious) cutin was used as substrate. The outer layer of the fruit was peeled by hand and cutin preparation carried out as described by Gerard et al. (1993) with minor modifications. Discs of apple peels were incubated at 50° C. in oxalate buffer [(oxalic acid (4 g/L)/ammonium oxalate (16 g/L)] for 16 h and then collected and washed several times with deionized water. The sample was treated with 0.5% Novozymes Aspergillus niger pectinase (Sigma P2736) in 100 mM phosphate citrate buffer pH 5.8 for 16 h. The cutin sheets were washed with ethanol, followed by several washes with chloroform, and then incubated in chloroform at 45° C. for 16 h, and finally dried to constant weight. The cutin was ground in a Cyclone sample Mill (UDY Corporation, Fort Collings, Colo., USA).
# A typical reaction mixture (2 mL) contained 20 mg cutin and an appropriate amount of cutinase in 25 mM sodium phosphate buffer, pH 8.0. The mixture was incubated in a water bath at 37° C. with gentle shaking for 16 h. Assays were conducted in duplicate. At the end of the reaction, the remaining cutin was removed by centrifugation (10 min, 5000 rpm). The resulting solution was acidified with hydrochloric acid and cutin monomers extracted with chloroform/methanol, according to Bligh and Dyer (1959). The organic phase was removed by evaporation under an air stream and the dried residue dissolved in 1 mL chloroform/methanol (85:15) and used for further derivatization. Trimethylsilylation of cutin monomers was performed with BSTFA [N, O-bis(trimethylsilyl) trifluoroactamide] and TMCS (trimethylchlorosilane) provided by the supplier in the ratio 99:1 (Supelco, Bellefonte, USA) at 70° C. for 3 h, and the composition of the mixture determined by GC-MS.
# Cutin monomers were identified by GC-MS on an Agilent 6890 gas chromatography system coupled to a 5973 quadrupole mass spectrometer. 1 μL was injected under splitless condition on a 50 m×0.20 mm×0.33 μm DB-5MS capillary column (Agilent). The oven temperature program was 70° C. (for 1.39 min) to 136° C. at 64° C./min and to 290° C. at 2.5° C./min (for 55 min). Helium was used as carrier gas. The temperature at the injection port was 250° C. The detector was run in El mode at 70 eV. Masses were scanned between 50 and 650 amu.
# Components were identified by comparison of the MS spectra of their trimethylsilyl (TMSi) derivatives, as methyl ester TMSi ether or as TMSi ester TMSi ether, with published spectra (Kallio et al., 2006; Philipps et al., 2002).
# To measure cutinase activity, assays of cutin hydrolysis were performed as described in Example 1, section 1.7 at two different enzyme concentrations. Characteristic cutin components, C16 and C18 hydroxyl fatty acids, were identified by GC-MS analysis.
# [4] = Pectin release from hemp fibre (TBA method)
# Protocol: Hemp fibres (German variety, 150 mg) were treated with either pectate lyase (PL, 10 U) or PL combined with various amounts of KrCUT (40, 60 and 100 U). Control experiments containing no enzyme or 100 U of KrCUT were conducted for comparison. After incubation at 37° C., aliquots of the reaction mixture were taken at 1 h 30 min and 3 h, and analyzed for pectin degradation products using the thio-barbituric acid (TBA) method (52) which detects released unsaturated compounds spectrophotometrically at 550 nm.
# The quantity of pectin released from natural hemp fibre by KrCUT in conjunction with the action of a thermostable pectate lyase was assessed as described in Example 1, section 1.13. The thermostable pectate lyase alone released a certain amount of pectin as expected of the pectinolytic activity (Xiao et al., 2008).
# [5] = Long term stability of KrCUT in culture medium; assay type: physicochemical; details: for Activity (U/mL): culture medium at 4° C.
# [6] = Stability of KrCUT in stabilisation buffer; assay type: physicochemical
# Protocol: For stability testing, culture medium showing KrCUT activity, and containing 100 mg total protein was used. Stabilisation buffer composed of sodium gluconate 1-5%, sodium carbonate 1-5%, sodium citrate 1-5% and propylene glycol 1-5% was prepared; 50 mL enzyme solution was added to 200 mL of buffer and stored at room temperature, after mixing. Samples were taken at defined time periods and the enzymatic activity was measured using p-nitrophenyl dodecanoate as substrate.
# [7] = Degradation of polylactic acid; details: 2.5 μM; 2 Units
molecule,measurement,setting,value
B1,specific activity,[1],162 U/mg
same,pH optimum,[2],8
same,"10,16-dihydroxyhexadecanoic acid released, Area (%)",[3]; 20 Units cutinase,39.25 ± 2.5%
same,"18-hydroxy-octadeca-9,12-dienoic acid released, Area (%)",[3]; 20 Units cutinase,18.0 ± 6.3%
same,"9,10,18-trihydroxyoctadec-9 enoic acid released, Area (%)",[3]; 200 Units cutinase,6.25 ± 0.40%
same,"9,10,18-trihydroxyoctadec-10,12-dienoic acid released, Area (%)",[3]; 200 Units cutinase,13.25 ± 0.40%
same,"9,10,18-trihydroxyoctadecanoic acid released, Area (%)",[3]; 200 Units cutinase,25.55 ± 0.10%
same,"9,16-dihydroxyhexadecanoic acid released, Area (%)",[3]; 200 Units cutinase,3.81 ± 0.62%
same,"10,16-dihydroxyhexadecanoic acid released, Area (%)",[3]; 200 Units cutinase,27.74 ± 0.41%
same,"18-hydroxy-octadeca-9,12-dienoic acid released, Area (%)",[3]; 200 Units cutinase,2.22 ± 0.13%
same,pectin released from hemp fibre,"[4]; highest concentration, absence of pectate lyase",negligible amounts
same,pectin degradation products detected,"[4]; increasing amount of cutinase, fixed pectate lyase",higher percentage of pectin degradation products
same,Activity (U/mL),[5]; 0 months,3.0 ± 0.94 U/mL
same,Activity (U/mL),[5]; 3 months,25.67 ± 0.94 U/mL
same,Activity (U/mL),[5]; 4 months,17.13 ± 0.70 U/mL
same,Activity (U/mL),[5]; 17 months,16.66 ± 2.47 U/mL
same,Activity (U/mL),[5]; 19 months,21.94 U/mL
same,activity retained,"[5]; room temperature, culture medium without additives, 4 months",full activity
same,initial activity present,[6]; 9 months at room temperature,up to 65%
same,time after which activity loss could be observed,[6]; room temperature,4 months
same,PLA degraded,[7],approximately 5%
